Series [1] has as its system colon tissue markers (ZO-1, Ki67, Axin2, Cdkn3, S100A9, CD45). The experiment in a line: RNA in situ hybridization and immunohistochemistry/immunofluorescence of colon tissue, DSS model. The format is in vivo, mouse. The note with it: day 10 of the DSS model. The source says: Expression of mRNA was detected by RNAscope in situ hybridization (ACD Bio). RNAscope probes used are listed below. For colorimetric visualization, standard RNAscope® 2.5 HD Assay-Red protocol (www.acdbio.com) was followed, and images were acquired on a Leica DMi8 microscope equipped with a DFC7000T color camera. For fluorescent RNAscope in situ hybridization, standard RNAscope Multiplex Fluorescent Reagent Kit v2 Assay protocol was followed (ACD Bio Document #323100-USM) and coupled with the TSA Plus Cyanine 3 and 5 Systems. Fluorescent images were acquired with a Leica Thunder imaging system.
In brief, five-micron thick formalin fixed paraffin embedded tissue sections on slides were deparaffinized followed by citrate buffer (pH 6) antigen retrieval in a steamer. Slides were then washed thoroughly in tap water followed by 1× wash in PBST. Subsequently, tissue sections were blocked with serum free protein block (Agilent, X090930-2) for one hour at room temperature followed by incubation in primary antibodies. After primary antibody incubation, tissue sections were washed in 0.1% TX-100 in PBS (PBST) at least three times followed by incubation in secondary antibody. Afterwards, tissue sections were washed with PBST, and coverslips were mounted with Vectashield Vibrance antifade mounting medium with DAPI (Vector Laboratories, H-1800).

For series [2], the system named is Mouse small intestinal organoids. Description: Organoid culture and proliferation assay. The format is cell-based. The note with it: organoids treated with Porcupine inhibitor IWP2. As for the experimental part: Mouse small intestinal organoids were maintained in mouse IntestiCult™ Organoid Growth Medium ([…] technologies) and passaged once a week until the date of assay for Wnt mimetic activity (H. Chen, Lu, Lee, & Li, 2020). To assay for organoid proliferation, organoids were dissociated with Gentle Cell Dissociation Reagent ([…] technologies) for 10 min with shaking, washed 2× in cold PBS (Gibco) and resuspended 1:1 in Matrigel (Corning) on ice. 25 ul of cell resuspension in Matrigel was seeded to the center of each well on a prewarmed 48-well tissue culture plate and let solidify for 5 min at 37 degrees. 300 ul of Basal Media (Table 10), Basal Media+IWP2+anti-βGal or Basal Media+IWP2+Wnt mimetic was applied to the wells. Each condition included 5-6 repeats. Media and treatments were changed once on Day 4 after plating. Images of the 3D cultured organoids were acquired on Day 7.
Mouse small intestinal organoids were treated with the Porcupine inhibitor IWP2 to inhibit endogenous Wnt ligand secretion in the cultured organoid. When these organoids were subject to no protein treatment or were treated with a control anti-β-gal IgG, the organoids were not maintained and quickly degenerated.

The subject of series [3] is DSS induced acute colitis in C57BL6/J mice. Description: DSS induced acute colitis model. The format is in vivo, mouse. The note with it: two doses day 4 and day 7, evaluated day 10. As for the experimental part: 7- to 8-week-old female C57BL6/J mice were fed with 4% (wt/vol) Dextran Sulfate Sodium (DSS, MP Biomedicals, molecular weight 36-50 kDa, Ref #160110) in drinking water from day 1 to day 7 to induce colitis and were switched to 1% DSS from day 8. […] Animals were terminated on day 10, allowing a 6-day course of protein treatment, and the colon was harvested for histology and RT-qPCR. […] The disease activity index (DAI) was calculated based on the average score of weight loss, stool consistency and the degree of intestinal bleeding (Wirtz Stefan et al., 2017). Scoring system by grading was on a scale of 0 to 4 using the following parameters: loss of weight (0, 0-1%; 1, 1-6%; 2, 6-12%; 3, 12-18%; 4, >18%), stool consistency (0, normal; 1, soft but still formed; 2, soft; 3, very soft, wet; 4, watery diarrhea) and intestine bleeding (0-1, negative hemoccult; 2, positive hemoccult; 3, blood traces in stool visible; 4, gross rectal bleeding).
Small intestine and colon were extracted and, after removing fecal content, weighted and length measured. The desired small intestine segments (duodenum, jejunum, ileum) and colon segments (ascending, transverse and descending colon) were cut out and fixed directly in 10% neutral buffered formalin (NBF) overnight. Tissues were then transferred to 70% ethanol before paraffin embedding. Paraffin tissue blocks were then sectioned to […] thickness and stained with hematoxylin and eosin (H&E) for histology analysis. Pathology reading was performed by an independent pathologist.
[…] Groups of mice were either untreated, treated with an isotype control antibody (anti-GFP), or treated with the indicated engineered Wnt agonist once on day 4 or twice on day 4 and 7. […]
The 123 mice total were grouped: (Day3=13, day4=13, day5=26, day6=24, day7=26, day10=21), with 91 used for histology endpoints, and 21 for scRNA-seq (group eliminated because of machinery). Daily food intake, BW, fecal score, and occult blood were measured. […]

B1: R2M3-26: Fzd1,2,5,7,8 pan specific Wnt mimetic targeting FZD1,2,5,7,8 and LRP6 (protein)
light: DVQLVESGGGLVQAGGSLRLACAGSGRIFAIYDIAWYRHPPGNQRELVAMIRPVVTEIDYADSVKGRFTISRNNAMKTVYLQMNNLKPEDTAVYYCNAKRPWGSRDEYWGQGTQVTVSSGSGSGQAVVLQEPSLSVSPGGTVTLTCGLSSGSVSTNYYPSWYQQTPGQAPRTLIYYTNTRSSDVPERFSGSIVGNKAALTITGAQPDDESVYFCLLYLGRGIWVFGGGTKLTVLGQPKAAPSVTLFPPSSEELQANKATLVCLISDFYPGAVTVAWKADSSPVKAGVETTTPSKQSNNKYAASSYLSLTPEQWKSHRSYSCQVTHEGSTVEKTVAPTECS
heavy: EVQLVQSGAEVKKPGASVKVSCKASGYTFTSYGISWVRQAPGQGLEWMGWISAYNGNTNYAQKLQGRVTMTTDTSTSTAYMELRSLRSDDTAVYYCASSKEKATYYYGMDVWGQGTTVTVSSASTKGPSVFPLAPSSKSTSGGTAALGCLVKDYFPEPVTVSWNSGALTSGVHTFPAVLQSSGLYSLSSVVTVPSSSLGTQTYICNVNHKPSNTKVDKKVEPKSCDKTHTCPPCPAPEAAGGPSVFLFPPKPKDTLMISRTPEVTCVVVDVSHEDPEVKFNWYVDGVEVHNAKTKPREEQYNSTYRVVSVLTVLHQDWLNGKEYKCKVSNKALGAPIEKTISKAKGQPREPQVYTLPPSREEMTKNQVSLTCLVKGFYPSDIAVEWESNGQPENNYKTTPPVLDSDGSFFLYSKLTVDKSRWQQGNVFSCSVMHEALHNHYTQKSLSLSPGK
With B1, in series [1], the “Ki67 expression in duodenum and colon” value is on record as “did not lead to an expansion of Ki67”. Also, the “organoid proliferation and growth” value in series [2] is “able to stimulate cell proliferation”. The “histology (colitis) score” value in series [3] (reduced from 4.75, see WO 2020/185960A1) is recorded as 2.0. For the same molecule, the “crypt architecture and tissue inflammation” value in series [3] (versus PBS or anti-GFP) is listed as “restored crypt architecture with less tissue inflammation”.

The values above are taken from patent publication US20240150473A1, “MODULATION OF WNT SIGNALING IN GASTROINTESTINAL DISORDERS” (Surrozen Operating, Inc., priority 2021, published 2024).
